Data on six molecules can be found in publication PMC10287707.

The target in series [1] is T1, TIA1 RRM2_3 (human, UniProt P31483-2 93-274).
T1 sequence: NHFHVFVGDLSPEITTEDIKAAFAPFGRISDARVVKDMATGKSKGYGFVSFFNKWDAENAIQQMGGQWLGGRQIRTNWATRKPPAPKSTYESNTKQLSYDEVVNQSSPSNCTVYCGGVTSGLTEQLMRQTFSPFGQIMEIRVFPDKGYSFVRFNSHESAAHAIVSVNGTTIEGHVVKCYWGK
As to the kind of experiment: EMSA; EMSA: 10 mM sodium phosphate pH 6.5, 50 mM NaCl, 1 mM DTT, 1 U/ul SUPERase-In, room temperature 20 min, native 1.2% agarose; RNA annealed in 10 mM Tris-HCl pH 7.5, 100 mM KCl. The note with it: protein: recombinant, tags: His6-SUMO removed by SUMO protease, label: 5'-Cy3. Background: Mobility shift assays separate free from complexed probe on a gel.

Series [2] has as its target T2, TIA1 RRM1-3 (human, UniProt P31483-2 1-274).
T2 sequence: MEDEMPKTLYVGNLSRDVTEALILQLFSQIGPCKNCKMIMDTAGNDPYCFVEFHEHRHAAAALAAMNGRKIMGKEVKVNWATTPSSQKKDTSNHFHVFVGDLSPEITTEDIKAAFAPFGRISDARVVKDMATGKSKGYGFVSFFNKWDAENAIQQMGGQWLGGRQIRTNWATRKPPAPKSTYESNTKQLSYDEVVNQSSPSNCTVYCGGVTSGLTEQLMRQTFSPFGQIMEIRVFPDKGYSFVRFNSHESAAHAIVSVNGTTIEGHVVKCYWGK
Described as above. The note with it: protein: recombinant; tags: His6-SUMO, removed (same protocol as RRM2_3); label: 5'-Cy3; single strand.

B1: MERS SL3 (structured_RNA)
RNA: UUUGAUUUUAACGAACUUAAA
Usually Kd stands for a measure of binding affinity in units of concentration. As to B1, in series [1], the Kd came to 300 ± 20 nM.

B2: SL2+SL3 (structured_RNA)
RNA: UUUCGAUCUCUUGUAGAUCUGUUCUCUAAACGAACUUUAAAAUCU
Regarding B2, in series [1] (two hairpins), the Kd was determined as 430 ± 50 nM.

B3: U11 (ssRNA)
RNA: UUUUUUUUUUU
With B3, the binding result in series [2] and in series [1] (single strand) was “binds” throughout.

B4: RousettusHKU9 SL3 (structured_RNA)
RNA: UCACUCUUGAACGAACUUAAA
For the molecule B4, the Kd in series [1] is 410 ± 20 nM.

B5: SL2 (structured_RNA)
RNA: UUUCGAUCUCUUGUAGAUC
With B5, the Kd in series [1] (hairpin, 5-nt loop) was 2470 ± 370 nM.

B6: SL3 (structured_RNA)
RNA: UGUUCUCUAAACGAACUUUAA
As to B6, the Kd in series [1] was 780 ± 90 nM.
